CN112010973A (SHANDONG BOAN BIOTECHNOLOGY CO LTD, dated 2020)

Target: T1, 4-1BB蛋白(义翘神州，10041-H08H) (human, UniProt Q07011 24-186)
T1 construct: bought reagent; also called 4-1BB-His蛋白; 4-1BB protein
Assay: SPR, BIAcore X100; antibody captured by anti-human IgG Fc on CM5, 4-1BB protein as analyte, 1:1 model

- Kd: 4.87 nM
- koff: 0.00251 s⁻¹
- kon: 516000 M⁻¹ s⁻¹
B1: Urelumab (antibody, human IgG4 S228P, kappa, V domains shown)
VH: QVQLQQWGAGLLKPSETLSLTCAVYGGSFSGYYWSWIRQSPEKGLEWIGEINHGGYVTYNPSLESRVTISVDTSKNQFSLKLSSVTAADTAVYYCARDYGPGNYDWYFDLWGRGTLVTVSS
VL: EIVLTQSPATLSLSPGERATLSCRASQSVSSYLAWYQQKPGQAPRLLIYDASNRATGIPARFSGSGSGTDFTLTISSLEPEDFAVYYCQQRSNWPPALTFGGGTKVEIKR
notes: Second positive control antibody, expressed in HEK293 in the same way as Utomilumab
